Test results: US20200147244A1

Columns and labels:
[1] = biological target: recombinant PSMA protein (human) (UniProt Q04609); assay: ELISA on PSMA
[2] = biological target: His-PSMA (Sino Biological) (human) (UniProt Q04609); assay: ELISA, PSMA immobilized by its His tag, PCC titrated in solution
[3] = biological target: PSMA-Myc-Flag (Origene) (human) (UniProt Q04609); assay: ELISA, PSMA immobilized by its Myc-Flag tag, PCC titrated in solution
PSMA-Myc-Flag (Origene) (human), sequence (Q04609 whole entry): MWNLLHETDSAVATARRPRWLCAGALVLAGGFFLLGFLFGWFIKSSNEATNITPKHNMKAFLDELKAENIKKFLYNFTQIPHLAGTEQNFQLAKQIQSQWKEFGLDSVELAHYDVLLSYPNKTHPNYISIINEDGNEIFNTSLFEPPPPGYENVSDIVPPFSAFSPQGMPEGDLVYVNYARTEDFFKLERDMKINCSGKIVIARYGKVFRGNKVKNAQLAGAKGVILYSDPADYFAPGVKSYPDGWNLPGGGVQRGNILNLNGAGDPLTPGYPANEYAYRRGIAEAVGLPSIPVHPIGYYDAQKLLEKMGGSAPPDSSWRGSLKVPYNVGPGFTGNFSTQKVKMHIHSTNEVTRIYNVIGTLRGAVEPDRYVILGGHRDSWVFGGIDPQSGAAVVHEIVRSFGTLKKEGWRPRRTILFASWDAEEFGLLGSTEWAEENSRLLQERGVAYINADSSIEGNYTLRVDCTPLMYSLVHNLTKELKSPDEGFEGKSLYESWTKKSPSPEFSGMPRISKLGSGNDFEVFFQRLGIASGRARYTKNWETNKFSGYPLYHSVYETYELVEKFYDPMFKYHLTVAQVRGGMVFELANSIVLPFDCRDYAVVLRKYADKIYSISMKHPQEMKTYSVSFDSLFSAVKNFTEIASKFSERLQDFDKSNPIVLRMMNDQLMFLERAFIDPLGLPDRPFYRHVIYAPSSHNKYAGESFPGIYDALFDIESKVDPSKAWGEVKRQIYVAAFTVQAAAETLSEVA

recombinant PSMA protein (human), sequence (Q04609 44-750 limits assumed): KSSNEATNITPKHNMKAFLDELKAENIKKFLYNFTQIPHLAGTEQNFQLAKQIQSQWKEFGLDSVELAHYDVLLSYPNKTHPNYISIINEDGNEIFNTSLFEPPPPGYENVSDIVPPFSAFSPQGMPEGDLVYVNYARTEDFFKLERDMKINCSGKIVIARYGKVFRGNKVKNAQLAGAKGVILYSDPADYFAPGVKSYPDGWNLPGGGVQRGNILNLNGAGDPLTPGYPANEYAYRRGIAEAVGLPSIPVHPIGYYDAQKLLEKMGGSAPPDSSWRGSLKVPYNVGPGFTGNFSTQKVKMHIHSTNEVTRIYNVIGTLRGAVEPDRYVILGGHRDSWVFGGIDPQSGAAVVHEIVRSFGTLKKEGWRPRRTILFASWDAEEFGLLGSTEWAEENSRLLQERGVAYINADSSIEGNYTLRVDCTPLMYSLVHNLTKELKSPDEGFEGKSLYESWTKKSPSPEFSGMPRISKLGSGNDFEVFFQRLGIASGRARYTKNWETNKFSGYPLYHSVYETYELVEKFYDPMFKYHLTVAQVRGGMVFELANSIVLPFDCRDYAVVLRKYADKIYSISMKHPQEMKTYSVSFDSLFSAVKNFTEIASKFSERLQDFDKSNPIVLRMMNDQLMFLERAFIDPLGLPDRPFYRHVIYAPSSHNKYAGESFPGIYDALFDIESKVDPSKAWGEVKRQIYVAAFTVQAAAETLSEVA
His-PSMA (Sino Biological) (human), sequence (Q04609 44-750 limits assumed): as above

EC50 [1] [nM]	EC50 [2] [nM]	EC50 [3] [nM]	Substance
5580	–	–	hnwlG (SEQ ID NO:19) (peptide)
8.6	–	–	lfkhh (SEQ ID NO:16) (peptide)
–	872	662	hreww (SEQ ID NO:10) (peptide)
